Reference: article PMC4240654, “A Single Chain Variant of Factor VIII Fc Fusion Protein Retains Normal In Vivo Efficacy but Exhibits Altered In Vitro Activity” (PLoS ONE, 2014)

Legend:
[1] = target: T1, human plasma-derived von Willebrand factor (VWF) (human, UniProt P04275 764-2813); experiment: SPR; Biacore T100, 25°C; human plasma-derived VWF immobilised on flow cells, FVIII variants infused to normalized capture levels, then human α-thrombin at different concentrations applied and rates of release determined; settings: both partners purified
T1 construct: von Willebrand factor, human, derived from plasma; Plasma VWF is a multimer; also called human VWF; source: human plasma-derived

[2] = target: T1, human plasma-derived von Willebrand …; experiment: SPR; Biacore T100, 37°C; human plasma-derived VWF immobilised on flow cells, FVIII variants infused to normalized capture levels, then human α-thrombin at different concentrations applied and rates of release determined; settings: both partners purified

thrombin EC50 for release from VWF [1]: 3.3 ± 0.3 U/mL
thrombin EC50 for release from VWF [2]: 4 ± 0.2 U/mL
B1: BDD rFVIII (recombinant B-domain-deleted factor VIII, ReFacto / Xyntha) (natural protein)
chain 1: ATRRYYLGAVELSWDYMQSDLGELPVDARFPPRVPKSFPFNTSVVYKKTLFVEFTDHLFNIAKPRPPWMGLLGPTIQAEVYDTVVITLKNMASHPVSLHAVGVSYWKASEGAEYDDQTSQREKEDDKVFPGGSHTYVWQVLKENGPMASDPLCLTYSYLSHVDLVKDLNSGLIGALLVCREGSLAKEKTQTLHKFILLFAVFDEGKSWHSETKNSLMQDRDAASARAWPKMHTVNGYVNRSLPGLIGCHRKSVYWHVIGMGTTPEVHSIFLEGHTFLVRNHRQASLEISPITFLTAQTLLMDLGQFLLFCHISSHQHDGMEAYVKVDSCPEEPQLRMKNNEEAEDYDDDLTDSEMDVVRFDDDNSPSFIQIRSVAKKHPKTWVHYIAAEEEDWDYAPLVLAPDDRSYKSQYLNNGPQRIGRKYKKVRFMAYTDETFKTREAIQHESGILGPLLYGEVGDTLLIIFKNQASRPYNIYPHGITDVRPLYSRRLPKGVKHLKDFPILPGEIFKYKWTVTVEDGPTKSDPRCLTRYYSSFVNMERDLASGLIGPLLICYKESVDQRGNQIMSDKRNVILFSVFDENRSWYLTENIQRFLPNPAGVQLEDPEFQASNIMHSINGYVFDSLQLSVCLHEVAYWYILSIGAQTDFLSVFFSGYTFKHKMVYEDTLTLFPFSGETVFMSMENPGLWILGCHNSDFRNRGMTALLKVSSCDKNTGDYYEDSYEDISAYLLSKNNAIEPRSFSQNPPVLKRHQR
chain 2: EITRTTLQSDQEEIDYDDTISVEMKKEDFDIYDEDENQSPRSFQKKTRHYFIAAVERLWDYGMSSSPHVLRNRAQSGSVPQFKKVVFQEFTDGSFTQPLYRGELNEHLGLLGPYIRAEVEDNIMVTFRNQASRPYSFYSSLISYEEDQRQGAEPRKNFVKPNETKTYFWKVQHHMAPTKDEFDCKAWAYFSDVDLEKDVHSGLIGPLLVCHTNTLNPAHGRQVTVQEFALFFTIFDETKSWYFTENMERNCRAPCNIQMEDPTFKENYRFHAINGYIMDTLPGLVMAQDQRIRWYLLSMGSNENIHSIHFSGHVFTVRKKEEYKMALYNLYPGVFETVEMLPSKAGIWRVECLIGEHLHAGMSTLFLVYSNKCQTPLGMASGHIRDFQITASGQYGQWAPKLARLHYSGSINAWSTKEPFSWIKVDLLAPMIIHGIKTQGARQKFSSLYISQFIIMYSLDGKKWQTYRGNSTGTLMVFFGNVDSSGIKHNIFNPPIIARYIRLHPTHYSIRSTLRMELMGCDLNSCSMPLGMESKAISDAQITASSYFTNMFATWSPSKARLHLQGRSNAWRPQVNNPKEWLQVDFQKTMKVTGVTTQGVKSLLTSMYVKEFLISSSQDGHQWTLFFQNGKVKVFQGNQDSFTPVVNSLDPPLLTRYLRIHPQSWVHQIALRMEVLGCEAQDLY
modifications: ReFacto/Xyntha (moroctocog alfa): S743-Q1638 fusion by convention, the same junction as printed for rFVIIIFc; mainly two-chain after cleavage at R1648, with a minor single-chain fraction …
